Experimental data from JP2017222678A (dated 2017).
Changes are numbered by the printed parent chain. One block for each binder: values may come before it.

Target: T1, ヒトTFPI (human tissue factor pathway inhibitor; American Diagnostica) (human, UniProt P10646 29-304, limits assumed)
T1 construct: Coated on plates (ELISA) or amine-coupled to a CM5 chip (Biacore); also called h-TFPI; hTFPI
T1 sequence (looked up): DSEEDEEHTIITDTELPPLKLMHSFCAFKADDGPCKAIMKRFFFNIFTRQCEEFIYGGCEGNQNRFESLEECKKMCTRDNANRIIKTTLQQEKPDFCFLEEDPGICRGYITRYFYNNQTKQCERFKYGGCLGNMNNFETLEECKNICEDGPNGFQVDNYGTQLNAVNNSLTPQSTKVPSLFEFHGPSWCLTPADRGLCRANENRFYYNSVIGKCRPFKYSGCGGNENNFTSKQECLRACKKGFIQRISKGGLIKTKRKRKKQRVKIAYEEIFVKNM
Experiment: ELISA, Fab in bacterial lysate on coated human TFPI

binding result: binds
B1: TP-2F9 (Fab, V domains shown)
VH: QVQLVESGGGLVQPGGSLRLSCAASGFTFYKYAMHWVRQAPGKGLEWVSGIQYDGSYTYYADSVKGRFTISRDNSKNTLYLQMNSLRAEDTAVYYCARYYCKCVDLWGQGTLVTVSS
VL: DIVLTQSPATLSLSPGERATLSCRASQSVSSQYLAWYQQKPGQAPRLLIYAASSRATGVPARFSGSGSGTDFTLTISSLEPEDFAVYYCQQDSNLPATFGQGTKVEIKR
notes: HuCAL Gold human Fab from E. coli TG1

binding result: binds
B2: TP-3A4 (Fab, V domains shown)
VH: QVQLVESGGGLVQPGGSLRLSCAASGFTFSSYWMHWVRQAPGKGLEWVSSISYDSSNTYYADSVKGRFTISRDNSKNTLYLQMNSLRAEDTAVYYCARYGGMDYWGQGTLVTVSS
VL: DIELTQPPSVSVAPGQTARISCSGDNLRDKYASWYQQKPGQAPVLVIYSKSERPSGIPERFSGSNSGNTATLTISGTQAEDEADYYCSSYTLNPNLNYVFGGGTKLTVLG
notes: as for B1

binding result: binds
B3: TP-2G9 (Fab, V domains shown)
VH: QVQLVESGGGLVQPGGSLRLSCAASGFTFNSYAMTWVRQAPGKGLEWVSAIKSDGSNTYYADSVKGRFTISRDNSKNTLYLQMNSLRAEDTAVYYCARNDSGWFDVWGQGTLVTVSS
VL: DIALTQPASVSGSPGQSITISCTGTSSDLGGFNTVSWYQQHPGKAPKLMIYSVSSRPSGVSNRFSGSKSGNTASLTISGLQAEDEADYYCQSYDLNNLVFGGGTKLTVLG
notes: as for B1

binding result: binds
B4: TP-3A2 (Fab, V domains shown)
VH: QVQLVESGGGLVQPGGSLRLSCAASGFTFSNYYLSWVRQAPGKGLEWVSGISYNGSSTNYADSVKGRFTISRDNSKNTLYLQMNSLRAEDTAVYYCARMWRYSLGADSWGQGTLVTVSS
VL: DIELTQPPSVSVAPGQTARISCSGDNIGSRYAYWYQQKPGQAPVVVIYDDSDRPSGIPERFSGSNSGNTATLTISGTQAEDEADYYCAAYTFYARTVFGGGTKLTVLG
notes: as for B1

binding result: binds
B5: TP-2B9 (Fab, V domains shown)
VH: QVQLQQSGPGLVKPSQTLSLTCAISGDSVSSNSAAWGWIRQSPGRGLEWLGMIYHRSKWYNDYAVSVKSRITINPDTSKNQFSLQLNSVTPEDTAVYYCARYSSIGHMDYWGQGTLVTVSS
VL: DIQMTQSPSSLSASVGDRVTITCRASQSIRSYLAWYQQKPGKAPKLLIYKASNLQSGVPSRFSGSGSGTDFTLTISSLQPEDFAVYYCHQYSDSPVTFGQGTKVEIKR
notes: as for B1

binding result: binds
B6: TP-2H10 (Fab, V domains shown)
VH: B5 VH with S33G, M52F, H55R, D62S, Y102Q, S103D, S104G, I105M, H107G, Y110S
VL: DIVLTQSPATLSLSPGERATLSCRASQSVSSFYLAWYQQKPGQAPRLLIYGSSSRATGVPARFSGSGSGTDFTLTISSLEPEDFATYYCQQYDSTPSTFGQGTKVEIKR
notes: as for B1

binding result: binds
B7: TP-2G5 (Fab, V domains shown)
VH: B5 VH with G37S, M52F, H55Y, Y102H, S103N, S104P, I105D, G106L, H107G, M108F
VL: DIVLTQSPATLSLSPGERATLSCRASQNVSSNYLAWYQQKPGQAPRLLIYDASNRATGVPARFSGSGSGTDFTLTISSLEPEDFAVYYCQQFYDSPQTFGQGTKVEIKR
notes: as for B1

binding result: binds
B8: TP-2E3 (Fab, V domains shown)
VH: B5 VH with H55Y, Y102V, S103N, S104Q, I105Y, G106T, H107S, M108S
VL: DIALTQPASVSGSPGQSITISCTGTSSDIGGYNYVSWYQQHPGKAPKLMIYGVNYRPSGVSNRFSGSKSGNTASLTISGLQAEDEADYYCSSADKFTMSIVFGGGTKLTVLG
notes: as for B1

binding result: binds
B9: TP-2G2 (Fab, V domains shown)
VH: QVQLVESGGGLVQPGGSLRLSCAASGFTFSSYAMNWVRQAPGKGLEWVSAILSDGSSTSYADSVKGRFTISRDNSKNTLYLQMNSLRAEDTAVYYCARYPDWGWYTDVWGQGTLVTVSS
VL: DIELTQPPSVSVAPGQTARISCSGDNIRKFYVHWYQQKPGQAPVLVIYGTNKRPSGIPERFSGSNSGNTATLTISGTQAEDEADYYCQSYDSKFNTVFGGGTKLTVLG
notes: as for B1

binding result: binds
B10: TP-2A2 (Fab, V domains shown)
VH: QVQLVESGGGLVQPGGSLRLSCAASGFTFSNNAMNWVRQAPGKGLEWVSTISYDGSNTYYADSVKGRFTISRDNSKNTLYLQMNSLRAEDTAVYYCARQAGGWTYSYTDVWGQGTLVTVSS
VL: DIELTQPPSVSVAPGQTARISCSGDNIRTYYVHWYQQKPGQAPVVVIYGDSKRPSGIPERFSGSNSGNTATLTISGTQAEDEADYYCQSYDSEADSEVFGGGTKLTVLG
notes: as for B1

binding result: binds
B11: TP-2G7 (Fab, V domains shown)
VH: QVQLVESGGGLVQPGGSLRLSCAASGFTFNSYAMSWVRQAPGKGLEWVSNISSNSSNTYYADSVKGRFTISRDNSKNTLYLQMNSLRAEDTAVYYCARKGGGEHGFFPSDIWGQGTLVTVSS
VL: B10 VL with I27L, R28G, V45L, S51N, K52N, S89T, E93N, A94N, D95E, E97I
notes: as for B1

binding result: binds
B12: TP-2D7 (Fab, V domains shown)
VH: QVQLQQSGPGLVKPSQTLSLTCAISGDSVSSNSAAWGWIRQSPGRGLEWLGLIYYRSKWYNDYAVSVKSRITINPDTSKNQFSLQLNSVTPEDTAVYYCARFGDTNRNGTDVWGQGTLVTVSS
VL: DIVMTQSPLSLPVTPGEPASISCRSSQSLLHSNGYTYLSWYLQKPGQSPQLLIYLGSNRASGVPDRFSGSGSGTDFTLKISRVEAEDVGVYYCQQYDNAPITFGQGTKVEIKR
notes: as for B1

binding result: binds
B13: TP-2E5 (Fab, V domains shown)
VH: QVQLQQSGPGLVKPSQTLSLTCAISGDSVSSNSAAWSWIRQSPGRGLEWLGMIFYRSKWNNDYAVSVKSRITINPDTSKNQFSLQLNSVTPEDTAVYYCARVNANGYYAYVDLWGQGTLVTVSS
VL: DIQMTQSPSSLSASVGDRVTITCRASQPIYNSLSWYQQKPGKAPKLLIYGVSNLQSGVPSRFSGSGSGTDFTLTISSLQPEDFAVYYCLQVDNLPITFGQGTKVEIKR
notes: as for B1

binding result: binds
B14: TP-2G4 (Fab, V domains shown)
VH: QVQLVESGGGLVQPGGSLRLSCAASGFTFSSYAMTWVRQAPGKGLEWVSNISYSGSNTYYADSVKGRFTISRDNSKNTLYLQMNSLRAEDTAVYYCARVGYYYGFDYWGQGTLVTVSS
VL: DIELTQPPSVSVAPGQTARISCSGDALRKHYVYWYQQKPGQAPVLVIYGDNNRPSGIPERFSGSNSGNTATLTISGTQAEDEADYYCQSYDKPYPILVFGGGTKLTVLG
notes: as for B1

binding result: binds
B15: TP-3B3 (Fab, V domains shown)
VH: B14 VH with A33G, T35H, S54M, Y59N, V99G, G100L, Y101F, Y102P, Y103G, G104Y
VL: DIELTQPASVSVAPGQTARISCSGDNLRSKYAHWYQQKPGQAPVLVIYGDNNRPSGIPERFSGSNSGNTATLTISGTQAEDEADYYCSAYAMGSSPVFGGGTKLTVLG
notes: as for B1

binding result: binds
B16: TP-3A3 (Fab, V domains shown)
VH: QVQLVESGGGLVQPGGSLRLSCAASGFTFNNNAISWVRQAPGKGLEWVSAINSSSSSTSYADSVKGRFTISRDNSKNTLYLQMNSLRAEDTAVYYCARGHHRGHSWASFIDYWGQGTLVTVSS
VL: DIELTQPPSVSVAPGQTARISCSGDNIGSKYVHWYQQKPGQAPVVVIYEDSDRPSGIPERFSGSNSGNTATLTISGTQAEDEADYYCQSWDKSEGYVFGGGTKLTVLG
notes: as for B1

binding result: binds
B17: TP-2C1 (Fab, V domains shown)
VH: QVQLVESGGGLVQPGGSLRLSCAASGFTFSPYVMSWVRQAPGKGLEWVSSISSSSSNTYYADSVKGRFTISRDNSKNTLYLQMNSLRAEDTAVYYCARGDSYMYDVWGQGTLVTVSS
VL: DIELTQPPSVSVAPGQTARISCSGDSIGSYYAHWYQQKPGQAPVLVIYYDSKRPSGIPERFSGSNSGNTATLTISGTQAEDEADYYCQAYTGQSISRVFGGGTKLTVLG
notes: as for B1
